B1: LXRα-VP16 (wild-type liver X receptor-α fused to VP16) [human] / Gal4-SRC1 (aa 570-780) [not stated] (parent)
chain 1: MSLWLGAPVPDIPPDSAVELWKPGAQDASSQAQGGSSCILREEARMPHSAGGTAGVGLEAAEPTALLTRAEPPSEPTEIRPQKRKKGPAPKMLGNELCSVCGDKASGFHYNVLSCEGCKGFFRRSVIKGAHYICHSGGHCPMDTYMRRKCQECRLRKCRQAGMREECVLSEEQIRLKKLKRQEEEQAHATSLPPRASSPPQILPQLSPEQLGMIEKLVAAQQQCNRRSFSDRLRVTPWPMAPDPHSREARQQRFAHFTELAIVSVQEIVDFAKQLPGFLQLSREDQIALLKTSAIEVMLLETSRRYNPGSESITFLKDFSYNREDFAKAGLQVEFINPIFEFSRAMNELQLNDAEFALLIAISIFSADRPNVQDQLQVERLQHTYVEALHAYVSIHHPHDRLMFPRMLMKLVSLRTLSSVHSEQVFALRLQDKKLPPLLSEIWDVHE
chain 2: PSRLNIQPAKAESKDNKEIASILNEMIQSDNSSSDGKPLDSGLLHNNDRLSDGDSKYSQTSHKLVQLLTTTAEQQLRHADIDTSCKDVLSCTGTSNSASANSSGGSCPSSHSSLTERHKILHRLLQEGSPSDITTLSVEPDKKDSASTSVSVTGQVQGNSSIKLELDASKKKESKDHQLLRYLLDKDEKDLRSTPNLSLDDVKVKVEKKEQ

Variants of: B1
Experiment: mammalian two-hybrid assay (luciferase reporter, HEK293 cells)
Settings: with Gal4-SRC1 (aa 570-780); GOF sub-panel; highest T0901317 (T09) dose plotted (rightmost point); 20 h; parent: 100; read off a plot

percent of parent [% WT] | Variant
100 | chain 1 MSLWLGAPVPDIPPDSAVELWKPGAQDASSQAQGGSSCILREEARMPHSAGGTAGVGLEAAEPTALLTRAEPPSEPTEIRPQKRKKGPAPKMLGNELCSVCGDKASGFHYNVLSCEGCKGFFRRSVIKGAHYICHSGGHCPMDTYMRRKCQECRLRKCRQAGMREECVLSEEQIRLKKLKRQEEEQAHATSLPPRASSPPQILPQLSPEQLGMIEKLVAAQQQCNRRSFSDRLRVTPWPMAPDPHSREARQQRFAHFTELAIVSVQEIVDFAKQLPGFLQLSREDQIALLKTSAIEVMLLETSRRYNPGSESITFLKDFSYNREDFAKAGLQVEFINPIFEFSRAVNELQLNDAEFALLIAISIFSADRPNVQDQLQVERLQHTYVEALHAYVSIHHPHDRLMFPRMLMKLVSLRTLSSVHSEQVFALRLQDKKLPPLLSEIWDVHE [chain 1 M346V]

Same assay, conditions: with Gal4-SRC1 (aa 570-780); GOF sub-panel; untreated condition (leftmost point, plotted an order of magnitude below the lowest T09 dose); 20 h; parent: 100; read off a plot

percent of parent [% WT] | Variant
18 | chain 1 MSLWLGAPVPDIPPDSAVELWKPGAQDASSQAQGGSSCILREEARMPHSAGGTAGVGLEAAEPTALLTRAEPPSEPTEIRPQKRKKGPAPKMLGNELCSVCGDKASGFHYNVLSCEGCKGFFRRSVIKGAHYICHSGGHCPMDTYMRRKCQECRLRKCRQAGMREECVLSEEQIRLKKLKRQEEEQAHATSLPPRASSPPQILPQLSPEQLGMIEKLVAAQQQCNRRSFSDRLRVTPWPMAPDPHSREARQQRFAHFTELAIVSVQEIVDFAKQLPGFLQLSREDQIALLKTSAIEVMLLETSRRYNPGSESITFLKDFSYNREDFAKAGLQVEFINPIFEFSRAVNELQLNDAEFALLIAISIFSADRPNVQDQLQVERLQHTYVEALHAYVSIHHPHDRLMFPRMLMKLVSLRTLSSVHSEQVFALRLQDKKLPPLLSEIWDVHE [chain 1 M346V]
